The term IC50 denotes the midpoint of a concentration-inhibition curve. The low end stands for higher potency, the high end for lower potency.

Data set [1] concerns the target AM1 (CRLR+RAMP2) receptor, lungs of dogs. In words: Displacement of labelled human adrenomedullin in the lungs of dogs. Type of data set: binding, dog. The note with it: displacement of labelled hAM.
For data set [2] the following is noted: dog, in vivo, iv. How it is done:
All experimental procedures were performed in accordance with regulations and ethical guidelines from Canadian Council for the Care of Laboratory Animals, and received approval by the animal ethics and research committee of the Montreal Heart Institute. Mongrel dogs weighing between 20-30 kg and presenting negative Dirofilaria imitis blood test results were anesthetized by an initial intravenous dose of pentobarbital sodium (50 mg/kg). Animals were intubated and mechanically ventilated using room air. Cutaneous electrocardiographic leads were installed, and 18F cathlon with three-way was installed on both saphenous vein for 0.9% sodium chloride perfusion, radiolabelled injection and blood collection. A right arterial femoral catheter was also inserted using the Seldinger technique for continuous blood pressure monitoring.
Purified and buffered ^99mTc-DTPA-hAM1-52 samples were injected in right saphenous vein (n=6). A series of 2 mL blood samples were collected 1 min after the initial AM injection for a 10-min period, then repeated every 5 min for the following 50-min period. Blood samples were taken via left saphenous vein. […] The blood samples were then placed in an automatic gamma counter (model 1272 Clinigamma, LKB Wallac, Finland) to determine ^99mTc activity.
Plasma kinetics of ^99mTc-DTPA-hAM1-52 was fitted using a two-phase exponential decay equation with GraphPad Prism version 4.0 software. Time effects on each organ biodistribution were analyzed by two-way repeated measures ANOVA followed, when a significant interaction was found, by Bonferroni/Dunn t-test. Multiple organs biodistribution comparison at 30 minutes was performed by one-way ANOVA followed, when a significant interaction was found, by Bonferroni/Dunn t-test. A P values of <0.05 was considered significant. All results are reported as mean±S.D.

For data set [3] the following is noted: dog, in vivo.
Method: Multi-organic biodistribution of ^99mTc-DTPA-hAM1-52 was evaluated with an Anger camera (420/550 Mobile Radioisotope Gamma Camera; Technicare, Solon, Ohio, USA) equipped with on board computer, and a low-energy parallel-hole collimator (model 14S22014). Following intravenous injection of ^99mTc-DTPA-hAM1-52, dynamic acquisition of the lungs, heart, liver and kidneys was recorded for a 30-min period (one frame/sec during the first minute, then one frame/min for the remaining time). Static acquisitions was also recorded for whole individual organs, including lungs, kidneys, liver, heart, bladder, gallbladder and muzzle, at 30, 60, 120, 240 minutes after initial injection. These recordings were performed both in ventral and dorsal positions.
Dynamic and static acquisitions were evaluated by using Matlab version 7.01 image analysis tools software. The ^99mTc total count, ^99mTc mean count, and region of interest (ROI) size were calculated for each organ. Data correction was applied for 1) radioactive decay, 2) surgical table attenuation (dorsal images only), 3) geometric mean, and 4) organ's attenuation based on transmission factor.

In turn, “hAM2(16-47): fragment 16-47 of hAM2 (QVQNLSHRLWQLMGPAGRQDSAPVDPSSPHSY) [reference compound]” yielded an IC50 in data set [1] of 980 nM.
Same read-out and setting: to “PAMP: synthetic peptide of Table 1, not further defined (ARLDVASEFRKKWNKWALSR) [reference compound]” belongs no less than 10000 nM.
Same read-out and setting: to “CGRP(8-37): CGRP fragment 8-37 [reference compound]” belongs no less than 10000 nM; to `CC[C@H](C)[C@H](NC(=O)[C@H](CCC(N)=O)NC(=O)[C@H](Cc1c[nH]cn1)NC(=O)[C@H](C)NC(=O)[C@H](CC(C)C)NC(=O)[C@H](CCCCN)NC(=O)[C@H](CCC(N)=O)NC(=O)[C@@H](NC(=O)[C@@H](NC(=O)[C@@H]1CSSC[C@H](NC(=O)CNC(=O)[C@H](Cc2ccccc2)NC(=O)[C@H](CO)NC(=O)[C@H](CCCNC(=N)N)NC(=O)[C@H](CC(C)C)NC(=O)CNC(=O)[C@H](CCC(N)=O)NC(=O)[C@H](Cc2ccccc2)NC(=O)[C@H](CC(N)=O)NC(=O)[C@H](CC(N)=O)NC(=O)[C@H](CCSC)NC(=O)[C@H](CO)NC(=O)[C@H](CCC(N)=O)NC(=O)[C@H](CCCNC(=N)N)NC(=O)[C@@H](N)Cc2ccc(O)cc2)C(=O)N[C@@H](CCCNC(=N)N)C(=O)N[C@@H](Cc2ccccc2)C(=O)NCC(=O)N[C@@H]([C@@H](C)O)C(=O)N1)[C@@H](C)O)C(C)C)C(=O)N[C@@H](Cc1ccc(O)cc1)C(=O)N[C@@H](CCC(N)=O)C(=O)N[C@@H](Cc1ccccc1)C(=O)N[C@H](C(=O)N[C@@H](CC(=O)O)C(=O)N[C@@H](CCCCN)C(=O)N[C@@H](CC(=O)O)C(=O)N[C@@H](CCCCN)C(=O)N[C@@H](CC(=O)O)C(=O)N[C@@H](CC(N)=O)C(=O)N[C@H](C(=O)N[C@@H](C)C(=O)N1CCC[C@H]1C(=O)N[C@@H](CCCNC(=N)N)C(=O)N[C@@H](CO)C(=O)N[C@@H](CCCCN)C(=O)N[C@H](C(=O)N[C@@H](CO)C(=O)N1CCC[C@H]1C(=O)N[C@@H](CCC(N)=O)C(=O)NCC(=O)N[C@@H](Cc1ccc(O)cc1)C(N)=O)[C@@H](C)CC)C(C)C)[C@@H](C)O` [hAM (cyclic), human adrenomedullin, reference compound], […]; to `CC[C@H](C)[C@H](NC(=O)[C@H](CCC(N)=O)NC(=O)[C@H](Cc1c[nH]cn1)NC(=O)[C@H](C)NC(=O)[C@H](CC(C)C)NC(=O)[C@H](CCCCN)NC(=O)[C@H](CCC(N)=O)NC(=O)[C@@H](NC(=O)[C@@H](NC(=O)[C@H](CS)NC(=O)[C@@H](NC(=O)CNC(=O)[C@H](Cc1ccccc1)NC(=O)[C@H](CCCNC(=N)N)NC(=O)[C@H](CS)NC(=O)CNC(=O)[C@H](Cc1ccccc1)NC(=O)[C@H](CO)NC(=O)[C@H](CCCNC(=N)N)NC(=O)[C@H](CC(C)C)NC(=O)CNC(=O)[C@H](CCC(N)=O)NC(=O)[C@H](Cc1ccccc1)NC(=O)[C@H](CC(N)=O)NC(=O)[C@H](CC(N)=O)NC(=O)[C@H](CCSC)NC(=O)[C@H](CO)NC(=O)[C@H](CCC(N)=O)NC(=O)[C@H](CCCNC(=N)N)NC(=O)[C@@H](N)Cc1ccc(O)cc1)[C@@H](C)O)[C@@H](C)O)C(C)C)C(=O)N[C@@H](Cc1ccc(O)cc1)C(=O)N[C@@H](CCC(N)=O)C(=O)N[C@@H](Cc1ccccc1)C(=O)N[C@H](C(=O)N[C@@H](CC(=O)O)C(=O)N[C@@H](CCCCN)C(=O)N[C@@H](CC(=O)O)C(=O)N[C@@H](CCCCN)C(=O)N[C@@H](CC(=O)O)C(=O)N[C@@H](CC(N)=O)C(=O)N[C@H](C(=O)N[C@@H](C)C(=O)N1CCC[C@H]1C(=O)N[C@@H](CCCNC(=N)N)C(=O)N[C@@H](CO)C(=O)N[C@@H](CCCCN)C(=O)N[C@H](C(=O)N[C@@H](CO)C(=O)N1CCC[C@H]1C(=O)N[C@@H](CCC(N)=O)C(=O)NCC(=O)N[C@@H](Cc1ccc(O)cc1)C(N)=O)[C@@H](C)CC)C(C)C)[C@@H](C)O` [hAM linear, Linear adrenomedullin], 7.1 nM.
For `CC[C@H](C)[C@H](NC(=O)[C@H](CCC(N)=O)NC(=O)[C@H](Cc1c[nH]cn1)NC(=O)[C@H](C)NC(=O)[C@H](CC(C)C)NC(=O)[C@H](CCCCN)NC(=O)[C@H](CCC(N)=O)NC(=O)[C@@H](NC(=O)[C@@H](NC(=O)[C@@H]1CSSC[C@H](NC(=O)CNC(=O)[C@H](Cc2ccccc2)NC(=O)[C@H](CO)NC(=O)[C@H](CCCNC(=N)N)NC(=O)[C@H](CC(C)C)NC(=O)CNC(=O)[C@H](CCC(N)=O)NC(=O)[C@H](Cc2ccccc2)NC(=O)[C@H](CC(N)=O)NC(=O)[C@H](CC(N)=O)NC(=O)[C@H](CCSC)NC(=O)[C@H](CO)NC(=O)[C@H](CCC(N)=O)NC(=O)[C@H](CCCNC(=N)N)NC(=O)[C@H](Cc2ccc(O)cc2)NC(=O)CN(CCN(CCN(CC(=O)O)CC(=O)O)CC(=O)O)CC(=O)O)C(=O)N[C@@H](CCCNC(=N)N)C(=O)N[C@@H](Cc2ccccc2)C(=O)NCC(=O)N[C@@H]([C@@H](C)O)C(=O)N1)[C@@H](C)O)C(C)C)C(=O)N[C@@H](Cc1ccc(O)cc1)C(=O)N[C@@H](CCC(N)=O)C(=O)N[C@@H](Cc1ccccc1)C(=O)N[C@H](C(=O)N[C@@H](CC(=O)O)C(=O)N[C@@H](CCCCN)C(=O)N[C@@H](CC(=O)O)C(=O)N[C@@H](CCCCN)C(=O)N[C@@H](CC(=O)O)C(=O)N[C@@H](CC(N)=O)C(=O)N[C@H](C(=O)N[C@@H](C)C(=O)N1CCC[C@H]1C(=O)N[C@@H](CCCNC(=N)N)C(=O)N[C@@H](CO)C(=O)N[C@@H](CCCCN)C(=O)N[C@H](C(=O)N[C@@H](CO)C(=O)N1CCC[C@H]1C(=O)N[C@@H](CCC(N)=O)C(=O)NCC(=O)N[C@@H](Cc1ccc(O)cc1)C(N)=O)[C@@H](C)CC)C(C)C)[C@@H](C)O` [^99mTc-DTPA-hAM1-52, metal not drawn], in data set [2], the distribution half-life amounted to 1.75 min; the elimination half-life was found to be 42.14 min; the “ratio of rate constant for exchange between central and peripheral compartments (k1-2/k2-1)” value is listed as 24.09. In addition, in data set [3], the “bladder retention, % of the injected dose” value turned out to be 5.67±1.75%; the dynamic multi-organic biodistribution result is “significant pulmonary first pass retention”; the “gallbladder retention, % of the injected dose” value amounted to 0.96±0.38%; the “heart retention, % of the injected dose” value is 7.17±2.04%. Besides, in data set [3], the “kidneys retention, % of the injected dose” value is recorded as 19.17±3.06%; the “liver retention, % of the injected dose” value came out at 11.67±1.37%; the “lung retention, % of the injected dose” value is reported as 15.83±2.32%; the “lungs retention, % of the injected dose” value turned out to be 27.00±2.76%. Further, in data set [3], the “muzzle retention, % of the injected dose” value is 1.17±0.41%.
Consider N-Ac hAM: N-terminal acetylated AM, for which the IC50 in data set [1] came out at 0.041 nM.
Same read-out and setting: the result for “hAM2: AM2, a peptide within the same family as AM [reference compound]” reads 480 nM; that for “hAM(1-25): human adrenomedullin fragment, amino acids 1-25 (YRQSMNNFQGLRSFGCRFGTCTVQK)”, no less than 10000 nM.
Same read-out and setting: to “hAM(26-52): human adrenomedullin fragment, amino acids 26-52 (LAHQIYQFTDKDKDNVAPRSKISPQGY)” belongs no less than 1000 nM; to “hAM(40-52): human adrenomedullin fragment, amino acids 40-52 (NVAPRSKISPQGY)”, no less than 10000 nM; to “hAM(13-52): human adrenomedullin fragment, amino acids 13-52”, 34 nM.

Values taken from patent US9062123B2, “Labelled adrenomedullin derivatives and their use for imaging and therapy” (PLUMOSCIENCE INC., priority 2004, dated 2015).
